Source: patent US20140377253A1 (published 2014)
Changes are numbered by the printed parent chain. In names and notes the source's numbering stands.

T1: FcγRIIB expressed on cells (UniProt P31994 43-310)
T1 chain: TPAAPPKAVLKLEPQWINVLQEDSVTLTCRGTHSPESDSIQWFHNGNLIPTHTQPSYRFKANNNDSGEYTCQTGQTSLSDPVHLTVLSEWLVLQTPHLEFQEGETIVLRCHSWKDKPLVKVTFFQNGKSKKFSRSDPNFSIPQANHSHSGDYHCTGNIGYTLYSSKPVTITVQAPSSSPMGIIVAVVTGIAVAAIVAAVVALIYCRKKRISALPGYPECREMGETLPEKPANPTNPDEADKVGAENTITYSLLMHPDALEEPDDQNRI

B1: V263L (protein)
chain: APELLGGPSVFLFPPKPKDTLMISRTPEVTCVLVDVSHEDPEVKFNWYVDGVEVHNAKTKPREEQYNSTYRVVSVLTVLHQDWLNGKEYKCKVSNKALPAPIEKTISKAK
B2: V273M (protein)
chain: B1 chain with L33V, V43M
B3: V305K (protein)
chain: B1 chain with L33V, V75K
B4: V273E (protein)
chain: B1 chain with L33V, V43E
B5: V266L (protein)
chain: B1 chain with L33V, V36L
B6: V273F (protein)
chain: B1 chain with L33V, V43F
B7: V273S (protein)
chain: B1 chain with L33V, V43S
B8: V305W (protein)
chain: B1 chain with L33V, V75W
B9: V273Y (protein)
chain: B1 chain with L33V, V43Y
B10: V273C (protein)
chain: B1 chain with L33V, V43C
B11: V273L (protein)
chain: B1 chain with L33V, V43L

Biological target: T1, FcγRIIB expressed on cells
Assay: FACS

B1 and B2 are within 1.5-fold of each other in EC50: 1.8 nM for the first, 1.63 nM for the second.

B3 and B4 are within 1.5-fold of each other in EC50: 1.93 nM for the first, 1.66 nM for the second.

First: B5
Second: B6
The EC50 of the first is 2.1-fold higher: 2.22 nM for the first, 1.08 nM for the second. The second is the more potent here.

Compared with B7, B8 is 1.7-fold higher in EC50: 1.72 nM for the first, 2.86 nM for the second.

Going from B9 to B10, the EC50 rises from 1.18 nM to 2.03 nM (1.7-fold).

In the case of B11, the EC50 is reported as 1.66 nM.

Biological target: FcγRIIIA expressed on cells (UniProt P08637 17-254)
Sequence (P08637 17-254): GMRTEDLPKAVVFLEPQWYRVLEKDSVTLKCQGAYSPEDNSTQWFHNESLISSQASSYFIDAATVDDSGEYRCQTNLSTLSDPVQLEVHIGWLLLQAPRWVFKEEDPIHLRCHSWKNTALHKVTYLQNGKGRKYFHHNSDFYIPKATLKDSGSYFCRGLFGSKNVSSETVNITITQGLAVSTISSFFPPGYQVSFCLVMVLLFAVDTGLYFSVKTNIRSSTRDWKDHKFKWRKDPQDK
Assay: FACS

B1 and B2 are within 1.5-fold of each other in EC50: 1.52 nM for the first, 1.59 nM for the second.

Going from B3 to B4, the EC50 rises from 0.51 nM to 1.78 nM (3.5-fold). The first is the more potent here.

Compared with B5, B6 is 2.6-fold higher in EC50: 0.76 nM for the first, 2.01 nM for the second.

First: B7
Second: B8
The EC50 of the first is 1.8-fold higher: 1.33 nM for the first, 0.74 nM for the second.

First: B9
Second: B10
The EC50 of the first is 2.7-fold higher: 3.19 nM for the first, 1.19 nM for the second. The second is the more potent here.

For B11, the EC50 was 0.69 nM.
